From publication PMC9482650, “Quantitative fragmentomics allow affinity mapping of interactomes” (Nature Communications, 2022)

T1: MPDZ_10, O75970
T1 sequence (O75970 1624-1722, limits assumed, looked up): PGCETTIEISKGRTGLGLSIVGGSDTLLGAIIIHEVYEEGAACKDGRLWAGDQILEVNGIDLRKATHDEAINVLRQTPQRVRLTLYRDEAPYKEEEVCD

T2: APBA2_1, Q99767
T2 sequence (Q99767 563-664, limits assumed, looked up): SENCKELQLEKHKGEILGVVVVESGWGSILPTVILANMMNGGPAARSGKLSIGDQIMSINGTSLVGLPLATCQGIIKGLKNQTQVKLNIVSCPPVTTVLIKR

T3: NHERF3_1, Q5T2W1
T3 sequence (Q5T2W1 4-100, limits assumed, looked up): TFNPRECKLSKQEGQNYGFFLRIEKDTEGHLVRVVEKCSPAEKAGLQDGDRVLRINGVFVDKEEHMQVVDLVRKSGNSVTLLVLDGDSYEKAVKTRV

T4: DLG3_1, Q92796
T4 sequence (Q92796 125-227, limits assumed, looked up): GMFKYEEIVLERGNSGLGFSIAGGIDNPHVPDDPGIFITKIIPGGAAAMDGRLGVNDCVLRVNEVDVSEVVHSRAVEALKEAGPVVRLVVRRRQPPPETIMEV

T5: TX1BP3, O14907
T5 sequence (O14907 10-122, limits assumed, looked up): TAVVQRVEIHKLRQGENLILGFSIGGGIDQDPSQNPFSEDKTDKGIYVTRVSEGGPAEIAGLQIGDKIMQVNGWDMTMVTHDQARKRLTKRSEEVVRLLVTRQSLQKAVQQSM

T6: SNTG1, Q9NSN8
T6 sequence (Q9NSN8 52-150, limits assumed, looked up): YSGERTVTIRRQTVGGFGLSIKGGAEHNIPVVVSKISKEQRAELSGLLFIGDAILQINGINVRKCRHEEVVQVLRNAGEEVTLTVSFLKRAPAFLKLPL

T7: SYNJ2BP, P57105
T7 sequence (P57105 8-110, limits assumed, looked up): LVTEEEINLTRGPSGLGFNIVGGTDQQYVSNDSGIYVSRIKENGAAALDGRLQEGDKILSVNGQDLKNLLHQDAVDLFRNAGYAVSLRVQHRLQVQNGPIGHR

T8: TJP3_3, O95049
T8 sequence (O95049 375-456, limits assumed, looked up): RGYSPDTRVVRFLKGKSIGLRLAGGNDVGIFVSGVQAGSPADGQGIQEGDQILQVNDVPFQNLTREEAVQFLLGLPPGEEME

T9: SNTA1, Q13424
T9 sequence (Q13424 82-180, limits assumed, looked up): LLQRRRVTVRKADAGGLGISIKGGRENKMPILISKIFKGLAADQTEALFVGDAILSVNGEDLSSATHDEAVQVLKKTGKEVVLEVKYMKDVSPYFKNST

T10: RHPN1, Q8TCX5
T10 sequence (Q8TCX5 508-602, limits assumed, looked up): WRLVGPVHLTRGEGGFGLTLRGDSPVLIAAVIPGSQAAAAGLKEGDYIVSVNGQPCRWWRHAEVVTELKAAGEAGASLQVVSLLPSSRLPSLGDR

T11: SHANK1, Q9Y566
T11 sequence (Q9Y566 658-767, limits assumed, looked up): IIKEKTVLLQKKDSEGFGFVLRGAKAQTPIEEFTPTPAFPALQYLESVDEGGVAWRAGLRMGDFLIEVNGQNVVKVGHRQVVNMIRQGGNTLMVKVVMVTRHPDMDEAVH

T12: DLG3_2, Q92796
T12 sequence (Q92796 221-321, limits assumed, looked up): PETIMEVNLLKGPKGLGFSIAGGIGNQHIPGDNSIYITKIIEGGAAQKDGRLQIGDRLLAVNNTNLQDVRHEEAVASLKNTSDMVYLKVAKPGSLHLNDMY


Key:
Assay in all cases: holdup assay
Design in all cases: key: below the threshold = too weak to quantify, mostly under pKd 3.1 to 4
Details in all cases: plain residues with an end cap or a label only (N-terminal biotin on a linker: ado-ado)
[1] = target: T1, MPDZ_10, O75970
[2] = target: T2, APBA2_1, Q99767
[3] = target: T3, NHERF3_1, Q5T2W1
[4] = target: DLG5_1, Q8TDM6
[5] = target: GOPC, Q9HD26
[6] = target: MAGI1_2, Q96QZ7
[7] = target: IL16_4, Q14005
[8] = target: FRMPD3, Q5JV73
[9] = target: T4, DLG3_1, Q92796
[10] = target: NHERF4_1, Q86UT5-2
[11] = target: T5, TX1BP3, O14907
[12] = target: T6, SNTG1, Q9NSN8
[13] = target: T7, SYNJ2BP, P57105
[14] = target: LIMK2, P53671
[15] = target: T8, TJP3_3, O95049
[16] = target: GRASP, Q7Z6J2
[17] = target: T9, SNTA1, Q13424
[18] = target: MAST2, Q6P0Q8
[19] = target: ARHGEF12, Q9NZN5-2
[20] = target: PDZRN4_1, Q6ZMN7
[21] = target: GRID2IP_1, A4D2P6
[22] = target: T10, RHPN1, Q8TCX5
[23] = target: CASK, O14936
[24] = target: T11, SHANK1, Q9Y566
[25] = target: T12, DLG3_2, Q92796
[26] = target: SCRIB_1, Q14160
Sequence of SCRIB_1, Q14160 (Q14160 718-814): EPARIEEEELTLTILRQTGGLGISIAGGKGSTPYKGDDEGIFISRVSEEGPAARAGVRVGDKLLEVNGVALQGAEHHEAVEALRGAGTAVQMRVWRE

Sequence of MAST2, Q6P0Q8 (Q6P0Q8 1099-1202): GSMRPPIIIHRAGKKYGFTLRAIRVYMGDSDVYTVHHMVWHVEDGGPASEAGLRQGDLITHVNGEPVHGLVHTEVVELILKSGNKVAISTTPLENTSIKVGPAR
Sequence of GRASP, Q7Z6J2 (Q7Z6J2 96-193): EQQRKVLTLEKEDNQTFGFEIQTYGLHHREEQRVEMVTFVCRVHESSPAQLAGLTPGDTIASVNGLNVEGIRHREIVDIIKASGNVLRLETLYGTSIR
Sequence of PDZRN4_1, Q6ZMN7 (Q6ZMN7 213-318): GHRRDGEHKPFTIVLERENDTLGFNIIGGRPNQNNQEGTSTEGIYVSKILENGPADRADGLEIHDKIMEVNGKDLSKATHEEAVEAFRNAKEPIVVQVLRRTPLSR
Sequence of LIMK2, P53671 (P53671 143-248): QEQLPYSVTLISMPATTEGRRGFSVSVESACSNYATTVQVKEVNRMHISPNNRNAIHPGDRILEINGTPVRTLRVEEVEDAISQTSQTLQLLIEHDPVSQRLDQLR
Sequence of IL16_4, Q14005 (Q14005 1229-1329): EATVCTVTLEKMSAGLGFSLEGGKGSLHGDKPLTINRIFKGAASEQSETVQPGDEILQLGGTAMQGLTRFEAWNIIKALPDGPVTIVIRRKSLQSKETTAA
Sequence of ARHGEF12, Q9NZN5-2 (Q9NZN5 other isoform, or with tags, fused parts or gaps): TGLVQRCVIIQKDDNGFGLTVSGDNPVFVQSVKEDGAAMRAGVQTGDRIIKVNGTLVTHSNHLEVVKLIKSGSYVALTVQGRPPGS
Sequence of CASK, O14936 (O14936 487-570): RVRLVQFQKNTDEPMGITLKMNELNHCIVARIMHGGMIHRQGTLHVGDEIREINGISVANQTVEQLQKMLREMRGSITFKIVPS
Sequence of NHERF4_1, Q86UT5-2 (Q86UT5 other isoform, or with tags, fused parts or gaps): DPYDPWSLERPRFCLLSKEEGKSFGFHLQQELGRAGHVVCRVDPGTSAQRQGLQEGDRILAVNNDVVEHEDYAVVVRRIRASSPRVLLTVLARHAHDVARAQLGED
Sequence of MAGI1_2, Q96QZ7 (Q96QZ7 456-580): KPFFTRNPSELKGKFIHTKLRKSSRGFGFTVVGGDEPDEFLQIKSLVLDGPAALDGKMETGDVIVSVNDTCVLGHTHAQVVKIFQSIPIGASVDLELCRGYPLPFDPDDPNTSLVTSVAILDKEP
Sequence of DLG5_1, Q8TDM6 (Q8TDM6 617-713): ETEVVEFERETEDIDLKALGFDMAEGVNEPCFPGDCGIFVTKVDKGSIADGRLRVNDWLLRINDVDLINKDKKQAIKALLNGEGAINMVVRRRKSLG
Sequence of FRMPD3, Q5JV73 (Q5JV73 12-100): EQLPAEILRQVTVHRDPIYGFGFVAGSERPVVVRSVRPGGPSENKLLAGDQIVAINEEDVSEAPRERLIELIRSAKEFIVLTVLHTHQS
Sequence of GRID2IP_1, A4D2P6 (A4D2P6 1-87): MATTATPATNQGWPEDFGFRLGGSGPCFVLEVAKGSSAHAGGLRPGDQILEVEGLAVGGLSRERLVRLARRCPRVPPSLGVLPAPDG

Row | Binder | pKd [1] | pKd [2] | pKd [3] | pKd [4] | pKd [5] | pKd [6] | pKd [7] | pKd [8] | pKd [9] | pKd [10] | pKd [11] | pKd [12] | pKd [13] | pKd [14] | pKd [15] | pKd [16] | pKd [17] | pKd [18] | pKd [19] | pKd [20] | further results
1 | HLRQQGSVEV [EPHB6, O15197] | below the threshold | below the threshold | below the threshold | below the threshold | below the threshold | below the threshold | below the threshold | below the threshold | below the threshold | 3.71 | 3.85 | below the threshold | below the threshold | below the threshold | below the threshold | below the threshold | below the threshold | 4.01 | 3.67 | below the threshold | pKd [21]: 4.13; pKd [22]: below the threshold; pKd [23]: below the threshold; pKd [24]: below the threshold; pKd [25]: below the threshold; pKd [26]: below the threshold
2 | FTLPAESSEI [PLEKHG7, Q6ZR37] | below the threshold | below the threshold | 3.52 | below the threshold | below the threshold | below the threshold | below the threshold | below the threshold | below the threshold | below the threshold | below the threshold | below the threshold | 3.98 | below the threshold | below the threshold | 3.98 | below the threshold | 5.6 | 4.18 | below the threshold | pKd [21]: below the threshold; pKd [22]: 4.68; pKd [23]: below the threshold; pKd [24]: 4.17; pKd [25]: 4.19; pKd [26]: below the threshold
3 | TGLWKSETTV [ADGRA2, Q96PE1] | below the threshold | below the threshold | below the threshold | below the threshold | 3.78 | 4.92 | below the threshold | below the threshold | 4.43 | below the threshold | 4.87 | 4.21 | 5.08 | below the threshold | below the threshold | 3.72 | 4.41 | 5.23 | 4.06 | 4.24 | pKd [21]: below the threshold; pKd [22]: 4.33; pKd [23]: below the threshold; pKd [24]: below the threshold; pKd [25]: 5.07; pKd [26]: 4.34
4 | NLQEHSTTSV [RSBN1, Q5VWQ0] | below the threshold | below the threshold | below the threshold | below the threshold | 3.57 | 3.53 | below the threshold | below the threshold | below the threshold | below the threshold | 3.97 | 3.65 | 4.42 | below the threshold | below the threshold | 4.51 | below the threshold | 5.61 | 4 | below the threshold | pKd [21]: below the threshold; pKd [22]: 4.04; pKd [23]: below the threshold; pKd [24]: 3.91; pKd [25]: 3.47; pKd [26]: 3.58
